From PMC4770229, “Nuclear factor 90 uses an ADAR2-like binding mode to recognize specific bases in dsRNA”

What was measured:
[1] = target: T1, NF90dsRBDs-deltaNLS (mouse, UniProt Q9Z1X4 393-592); test: ITC; apparent Kd; unit as printed (mM), possibly uM misprint; 1:2 RNA:protein; EMSA: 20 mM HEPES pH 7.5, 150 mM K acetate, on ice, 1 uM RNA (competition 0.5 uM complex); FA: same buffer, 23.5 C, 250 nM RNA; ITC: 20 mM HEPES pH 7.5, 50 mM NaCl, 25 C; details: protein: recombinant; tags: GST removed by TEV; chain copies: 2; blunt
T1 sequence: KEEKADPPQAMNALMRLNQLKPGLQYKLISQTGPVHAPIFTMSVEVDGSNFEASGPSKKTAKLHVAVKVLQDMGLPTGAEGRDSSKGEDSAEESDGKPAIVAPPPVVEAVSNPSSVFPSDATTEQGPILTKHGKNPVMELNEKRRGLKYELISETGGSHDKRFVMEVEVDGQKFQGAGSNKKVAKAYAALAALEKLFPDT

[2] = target: NF90-deltaC380;NF45-deltaN28 (with NF90-deltaC380) (mouse?;mouse?, UniProt Q9Z1X4;Q9CXY6 1-380;28-390, |); test: EMSA; EMSA: 20 mM HEPES pH 7.5, 150 mM K acetate, on ice, 1 uM RNA (competition 0.5 uM complex); FA: same buffer, 23.5 C, 250 nM RNA; ITC: 20 mM HEPES pH 7.5, 50 mM NaCl, 25 C; details: protein: recombinant;recombinant; tags: ;; copies: 1;1; label: 5' DY781 on strand 1; blunt
[3] = target: NF90long;NF45 (mouse;mouse?, UniProt Q9Z1X4;Q9CXY6 1-590;1-390, |); test: competition; competes DY781 21mer efficiently; EMSA: 20 mM HEPES pH 7.5, 150 mM K acetate, on ice, 1 uM RNA (competition 0.5 uM complex); FA: same buffer, 23.5 C, 250 nM RNA; ITC: 20 mM HEPES pH 7.5, 50 mM NaCl, 25 C; details: protein: recombinant;recombinant; tags: 6xHis removed by TEV;6xHis removed by TEV; copies: 1;1; hairpin with mismatches
[4] = target: T2, NF90dsRBDs (mouse, UniProt Q9Z1X4 380-592); test: fluorescence anisotropy; EMSA: 20 mM HEPES pH 7.5, 150 mM K acetate, on ice, 1 uM RNA (competition 0.5 uM complex); FA: same buffer, 23.5 C, 250 nM RNA; ITC: 20 mM HEPES pH 7.5, 50 mM NaCl, 25 C; details: protein: recombinant; tags: GST removed by TEV; label: 5' Cy3 on strand 1; blunt
T2 sequence: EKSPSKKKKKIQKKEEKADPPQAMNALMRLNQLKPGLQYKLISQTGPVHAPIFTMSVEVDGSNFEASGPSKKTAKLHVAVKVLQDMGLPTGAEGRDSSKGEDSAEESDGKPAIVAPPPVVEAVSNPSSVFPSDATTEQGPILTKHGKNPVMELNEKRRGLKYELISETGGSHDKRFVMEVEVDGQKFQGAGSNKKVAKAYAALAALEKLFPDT

[5] = target: NF90long;NF45-deltaN28 (mouse;mouse, UniProt Q9Z1X4;Q9CXY6 1-590;28-390, |); test: as above; details: protein: recombinant;recombinant; tags: 6xHis removed by TEV;6xHis removed by TEV; copies: 1;1; label: 5' Cy3 on strand 1; blunt

B1: 18mer dsRNA, 2'F strand (dsRNA)
RNA 1: UCACUUUCAUAAUGCUGG
RNA 2: CCAGCAUUAUGAAAGUGA
modifications: 2'-F ribose uniformly on strand 1
B1 showed a Kd [1] of about 2.4 mM.

B2: 21mer dsRNA, DY781 (dsRNA)
RNA 1: UCACUUUCAUAAUGCUGGAUA
RNA 2: UAUCCAGCAUUAUGAAAGUGA
B2: no binding [2].

B3: GluA2(R/G) hairpin RNA (structured_RNA)
RNA: CAUUAAGGUGGGUGGAAUAGUAUAACAAUAUGCUAAAUGUUGUUAUAGUAUCCCACCUACCCUGAUG
B3: binds [3].

B4: 18mer dsRNA, unmodified (dsRNA)
RNA 1: UCACUUUCAUAAUGCUGG
RNA 2: CCAGCAUUAUGAAAGUGA
In the case of B4, the Kd [1] is reported as about 2.4 mM.

B5: 21mer dsRNA, Cy3 (dsRNA)
RNA 1: UCACUUUCAUAAUGCUGGAUA
RNA 2: UAUCCAGCAUUAUGAAAGUGA
In the case of B5, the Kd [4] is reported as 433 ± 55 nM and the Kd [5] is reported as 46 ± 16 nM.
